Numbering of substitutions follows the chain as printed.
T1: full-length RAD51AP1 (RAD51 Associated Protein 1), wild type (UniProt Q96B01 1-352)
T1 sequence: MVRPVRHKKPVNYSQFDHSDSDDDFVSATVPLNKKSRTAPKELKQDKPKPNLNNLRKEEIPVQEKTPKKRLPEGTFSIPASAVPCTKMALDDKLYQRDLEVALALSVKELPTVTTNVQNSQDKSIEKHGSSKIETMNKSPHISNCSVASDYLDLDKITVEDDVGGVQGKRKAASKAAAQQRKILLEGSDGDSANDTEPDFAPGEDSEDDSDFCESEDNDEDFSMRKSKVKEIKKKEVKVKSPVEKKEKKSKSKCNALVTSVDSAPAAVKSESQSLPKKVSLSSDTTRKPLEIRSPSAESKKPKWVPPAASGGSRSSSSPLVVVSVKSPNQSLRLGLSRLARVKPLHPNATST

T2: full-length RAD51AP1-H346A (Site-C mutant) (UniProt Q96B01 1-352, H346A)
T2 sequence: T1 sequence with H346A

T3: full-length RAD51AP1 variant in which both Site-N and Site-C are mutated (NC) (UniProt Q96B01 1-352)
T3 chain: T1 sequence with K300A, K303A, W304A, P306A, P307A, H346A

B1: RAD51 recombinase (natural protein)
chain: MAMQMQLEANADTSVEEESFGPQPISRLEQCGINANDVKKLEEAGFHTVEAVAYAPKKELINIKGISEAKADKILAEAAKLVPMGFTTATEFHQRRSEIIQITTGSKELDKLLQGGIETGSITEMFGEFRTGKTQICHTLAVTCQLPIDRGGGEGKAMYIDTEGTFRPERLLAVAERYGLSGSDVLDNVAYARAFNTDHQTQLLYQASAMMVESRYALLIVDSATALYRTDYSGRGELSARQMHLARFLRMLLRLADEFGVAVVITNQVVAQVDGAAMFAADPKKPIGGNIIAHASTTRLYLRKGRGETRICKIYDSPCLPEAEAMFAINADGVGDAKD
B2: full-length RAD51AP1 Site-N mutant (K300, K303, W304, P306, P307 to alanine) (natural protein)
chain: T1 sequence with K300A, K303A, W304A, P306A, P307A

Key:
[1] = molecular target: T1, full-length RAD51AP1 (RAD51 Associated …); experiment: BLI
[2] = molecular target: T2, full-length RAD51AP1-H346A (Site-C …); experiment: BLI
[3] = molecular target: T3, full-length RAD51AP1 variant in which …; experiment: BLI
RAD51 recombinase = molecular target: B1; experiment: pull-down

Kd [1] [nM]	fold decrease in binding affinity against wild type [2] [fold]	fold reduction in affinity against wild type [3] [fold]	binding result (RAD51 recombinase)	Binder
~600	~2.5	~4		B1
			binds	B2
